Experiment [1] addresses T1, Human EphA5 (Human, UniProt P54756 25-573, limits assumed, biotinylated, 3.1 mol biotin/monomer).
T1 construct: Bought protein; also called R&D Systems 3036-A5
Nature of the experiment: SPR, biotinylated protein on streptavidin.

Experiment [2] deals with Rat EphA2 (Rat, UniProt D3ZBN3 23-538, biotinylated, 1.4 mol biotin/monomer). The experiment is described as follows: SPR, biotinylated EphA2 on streptavidin chip. A general note: SPR reads the build-up and loss of mass on a sensor chip optically.
Experiment [3] concerns the target T2, Human EphA2 (Human, UniProt P29317 24-537, limits assumed, biotinylated, 0.95 mol biotin/monomer).
T2 construct: also called Eph receptor tyrosine kinase A2
Nature of the experiment: SPR, biotinylated EphA2 on streptavidin chip.

Experiment [4] addresses T3, Mouse EphA3 Fc fusion (Mouse, UniProt P29319 21-540).
T3 construct: Bought Fc fusion; also called Sino Biologics 51122-M02H; not shown: Fc of the bought fusion
T3 sequence (looked up): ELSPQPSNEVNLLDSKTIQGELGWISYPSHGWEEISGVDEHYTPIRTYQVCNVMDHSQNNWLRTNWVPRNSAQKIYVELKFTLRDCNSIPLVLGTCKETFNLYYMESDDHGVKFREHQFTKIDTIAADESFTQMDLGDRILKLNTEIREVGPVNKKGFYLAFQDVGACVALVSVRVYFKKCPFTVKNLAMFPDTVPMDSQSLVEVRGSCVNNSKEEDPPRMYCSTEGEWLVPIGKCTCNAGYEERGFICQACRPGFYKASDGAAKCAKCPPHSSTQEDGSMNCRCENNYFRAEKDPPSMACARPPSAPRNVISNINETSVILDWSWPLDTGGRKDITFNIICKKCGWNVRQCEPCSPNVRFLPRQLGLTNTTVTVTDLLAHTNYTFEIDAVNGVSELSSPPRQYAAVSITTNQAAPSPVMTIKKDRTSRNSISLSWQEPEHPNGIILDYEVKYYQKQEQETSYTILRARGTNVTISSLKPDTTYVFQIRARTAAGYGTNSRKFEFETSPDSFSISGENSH
Nature of the experiment: SPR, Fc-tagged protein captured by anti-human IgG.

Experiment [5] deals with T4, Mouse EphA4 Fc fusion (Mouse, UniProt Q03137 20-547).
T4 construct: Bought Fc fusion; also called Sino Biologics 50575-M02H; not shown: Fc of the bought fusion
Nature of the experiment: SPR, Fc-tagged protein captured by anti-human IgG.
T4 sequence (Q03137 20-547 limits assumed): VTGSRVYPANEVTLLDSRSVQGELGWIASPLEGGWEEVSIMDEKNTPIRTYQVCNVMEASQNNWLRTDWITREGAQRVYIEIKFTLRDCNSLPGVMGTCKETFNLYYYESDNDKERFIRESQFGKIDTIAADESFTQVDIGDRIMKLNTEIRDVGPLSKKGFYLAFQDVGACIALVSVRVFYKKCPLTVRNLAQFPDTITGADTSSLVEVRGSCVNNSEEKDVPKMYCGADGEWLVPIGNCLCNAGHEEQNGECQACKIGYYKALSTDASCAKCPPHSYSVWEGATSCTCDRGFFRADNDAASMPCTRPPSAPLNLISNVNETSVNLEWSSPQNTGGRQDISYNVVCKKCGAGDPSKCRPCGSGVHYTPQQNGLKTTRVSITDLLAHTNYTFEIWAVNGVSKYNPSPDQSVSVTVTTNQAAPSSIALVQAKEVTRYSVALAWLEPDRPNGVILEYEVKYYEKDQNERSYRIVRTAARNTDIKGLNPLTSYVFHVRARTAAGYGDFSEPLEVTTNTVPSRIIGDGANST

For experiment [6], the target named is T5, Human EphA3 Fc fusion (Human, UniProt P29320 21-541, limits assumed).
T5 construct: SPR; R&D Systems 6444-A3
T5 sequence (looked up): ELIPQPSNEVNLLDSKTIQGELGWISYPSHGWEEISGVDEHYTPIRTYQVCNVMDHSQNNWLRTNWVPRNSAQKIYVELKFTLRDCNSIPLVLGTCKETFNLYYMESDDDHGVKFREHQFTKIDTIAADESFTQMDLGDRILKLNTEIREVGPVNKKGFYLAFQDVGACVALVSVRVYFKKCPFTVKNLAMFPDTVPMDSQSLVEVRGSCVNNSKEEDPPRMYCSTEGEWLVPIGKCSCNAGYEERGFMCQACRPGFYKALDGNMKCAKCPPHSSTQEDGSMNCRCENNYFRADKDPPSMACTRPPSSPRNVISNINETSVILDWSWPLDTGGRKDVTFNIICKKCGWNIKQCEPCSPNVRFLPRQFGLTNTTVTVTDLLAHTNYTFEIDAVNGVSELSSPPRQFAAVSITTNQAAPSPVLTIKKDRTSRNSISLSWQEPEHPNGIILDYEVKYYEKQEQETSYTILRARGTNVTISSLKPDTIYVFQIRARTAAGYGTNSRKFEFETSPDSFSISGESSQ
Nature of the experiment: SPR.

Experiment [7] has as its target T6, Human EphB4 Fc fusion (Human, UniProt P54760 16-539).
T6 construct: SPR; Sino Biologics 10235-H02H
T6 sequence (looked up): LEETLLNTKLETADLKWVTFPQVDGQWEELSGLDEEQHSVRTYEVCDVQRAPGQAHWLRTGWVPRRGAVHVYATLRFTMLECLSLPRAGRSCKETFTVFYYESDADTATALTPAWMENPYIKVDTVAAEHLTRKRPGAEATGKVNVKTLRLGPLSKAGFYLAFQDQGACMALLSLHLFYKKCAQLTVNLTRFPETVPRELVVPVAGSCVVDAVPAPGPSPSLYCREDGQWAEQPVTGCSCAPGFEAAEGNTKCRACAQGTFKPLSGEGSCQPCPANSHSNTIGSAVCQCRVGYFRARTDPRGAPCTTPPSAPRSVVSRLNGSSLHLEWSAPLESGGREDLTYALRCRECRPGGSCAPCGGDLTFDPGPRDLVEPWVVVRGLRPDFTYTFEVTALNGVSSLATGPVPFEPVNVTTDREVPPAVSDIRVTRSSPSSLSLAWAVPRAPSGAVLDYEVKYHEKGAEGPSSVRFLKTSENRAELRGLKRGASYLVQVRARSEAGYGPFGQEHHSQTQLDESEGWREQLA
Nature of the experiment: SPR.

Experiment [8] has as its target T7, Mouse EphA3 Fc fusion (Mouse, UniProt P29319 21-540).
T7 construct: SPR; Sino Biologics 51122-M02H
T7 sequence (looked up): T3 sequence (looked up)
The experiment is described as follows: SPR.

In experiment [9] the target is T8, Mouse EphA4 Fc fusion (Mouse, UniProt Q03137 20-547).
T8 construct: SPR; Sino Biologics 50575-M02H
The experiment is described as follows: SPR.
T8 sequence (Q03137 20-547 limits assumed): as the sequence (Q03137 20-547 limits assumed) above

Experiment [10] concerns the target T9, Rat EphA3 Fc fusion (Rat, UniProt O08680 21-541).
T9 construct: SPR; Sino Biologics 80465-R02H
T9 sequence (looked up): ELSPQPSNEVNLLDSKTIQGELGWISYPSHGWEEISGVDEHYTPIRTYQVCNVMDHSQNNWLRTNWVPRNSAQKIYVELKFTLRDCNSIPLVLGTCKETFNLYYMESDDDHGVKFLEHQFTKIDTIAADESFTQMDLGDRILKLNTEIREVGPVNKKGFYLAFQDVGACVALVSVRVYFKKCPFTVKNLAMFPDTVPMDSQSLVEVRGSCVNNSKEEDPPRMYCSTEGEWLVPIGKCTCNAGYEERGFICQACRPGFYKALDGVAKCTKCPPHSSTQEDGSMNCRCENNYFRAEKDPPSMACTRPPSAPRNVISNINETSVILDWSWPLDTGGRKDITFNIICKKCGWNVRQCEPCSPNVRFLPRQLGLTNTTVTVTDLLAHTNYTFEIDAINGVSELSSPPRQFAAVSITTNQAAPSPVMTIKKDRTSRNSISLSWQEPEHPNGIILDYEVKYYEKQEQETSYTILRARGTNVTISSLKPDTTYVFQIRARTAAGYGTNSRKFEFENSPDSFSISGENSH
Nature of the experiment: SPR.

In patent US20240000957A1 (published 2024) one finds binding result, Kd and t1/2 data, which are given here for four molecules.

T2 sequence (P29317 24-537 limits assumed): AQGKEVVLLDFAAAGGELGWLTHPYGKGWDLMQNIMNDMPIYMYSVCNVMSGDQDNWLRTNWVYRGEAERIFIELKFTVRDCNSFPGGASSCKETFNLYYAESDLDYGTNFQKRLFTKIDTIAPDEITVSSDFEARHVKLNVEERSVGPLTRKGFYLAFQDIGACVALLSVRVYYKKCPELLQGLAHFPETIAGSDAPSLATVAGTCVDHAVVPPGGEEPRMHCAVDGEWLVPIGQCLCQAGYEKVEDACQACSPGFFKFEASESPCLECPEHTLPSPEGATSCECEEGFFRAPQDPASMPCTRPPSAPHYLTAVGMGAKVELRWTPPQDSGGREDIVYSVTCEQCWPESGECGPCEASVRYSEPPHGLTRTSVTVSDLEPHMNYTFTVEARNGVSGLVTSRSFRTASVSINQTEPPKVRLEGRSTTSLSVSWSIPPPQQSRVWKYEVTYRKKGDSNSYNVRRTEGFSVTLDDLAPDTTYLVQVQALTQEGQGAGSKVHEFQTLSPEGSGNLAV
T1 sequence (P54756 25-573 limits assumed): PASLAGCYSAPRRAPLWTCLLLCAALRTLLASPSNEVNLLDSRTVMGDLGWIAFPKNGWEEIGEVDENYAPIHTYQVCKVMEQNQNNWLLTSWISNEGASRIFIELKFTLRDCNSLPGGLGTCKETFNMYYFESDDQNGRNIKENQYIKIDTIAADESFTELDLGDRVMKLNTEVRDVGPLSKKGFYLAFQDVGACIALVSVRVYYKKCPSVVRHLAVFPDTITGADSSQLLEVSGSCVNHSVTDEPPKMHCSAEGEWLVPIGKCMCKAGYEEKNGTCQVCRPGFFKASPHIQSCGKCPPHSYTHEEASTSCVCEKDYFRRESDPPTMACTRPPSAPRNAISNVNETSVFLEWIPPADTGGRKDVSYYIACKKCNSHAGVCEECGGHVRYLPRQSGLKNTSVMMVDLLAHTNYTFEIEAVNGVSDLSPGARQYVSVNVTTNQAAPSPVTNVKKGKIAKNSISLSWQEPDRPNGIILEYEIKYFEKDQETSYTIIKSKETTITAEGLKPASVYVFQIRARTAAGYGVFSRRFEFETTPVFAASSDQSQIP

B1: BCY6082 (peptide)
peptide: AXDCPLVNPLCLHPGWTC
modifications: not fully specified; N-terminal (β-Ala)-Sar10 spacer precedes SEQ ID NO: 11; HArg (homoarginine) at residue 2 of SEQ ID NO: 11; three Cys cyclised on the TATA scaffold; DM1-SS(SO3H)- (DM1-SO3H-SPDB) on the N-terminal amine
As usually defined, the Kd is the equilibrium constant for the complex coming apart. Low values mean tighter binding, high ones weaker binding. On to B1, for which the binding result in experiment [1] is reported as “no binding (tested: 25 µM)”; in experiment [4], “no binding (tested: 20 µM)”; in experiment [5], “no binding (tested: 20 µM)”. For the same molecule, the Kd in experiment [2] was 28.8 nM; in experiment [3] it was 2.42 nM. Also, the t1/2 in experiment [2] came out at 3.2 min; in experiment [3], 4.8 min.

B2: BCY6033 (peptide)
peptide: AXDCPLVNPLCLHPGWTC
modifications: not fully specified; as BCY6014 (N-terminal (β-Ala)-Sar10; HArg; TATA scaffold on the 3 Cys) + ValCit-MMAE
notes: Bicycle drug conjugate (BDC)
On to B2, for which the binding result in experiment [6], in experiment [7], in experiment [8], in [9] and in [10] was “no binding” throughout.

B3: BCY6082 (peptide)
peptide: AXDCPLVNPLCLHPGWTC
modifications: not fully specified; as BCY6014 (N-terminal (β-Ala)-Sar10; HArg; TATA scaffold on the 3 Cys) + DM1-SS(SO3H)-
notes: Bicycle drug conjugate (BDC)
On to B3, for which the binding result in [6], in [7], in experiment [8], in [9] and in [10] was “no binding” throughout.

B4: BCY6033 (peptide)
peptide: AXDCPLVNPLCLHPGWTC
modifications: not fully specified; N-terminal (β-Ala)-Sar10 spacer precedes SEQ ID NO: 11; HArg (homoarginine) at residue 2 of SEQ ID NO: 11; three Cys cyclised on the TATA scaffold; ValCit-MMAE (MMAE-PABC-Cit-Val-glutarate) on the N-terminal amine
Consider B4, for which the binding result is “no binding (tested: 25 µM)” in [1], “no binding (tested: 20 µM)” in [4] and “no binding (tested: 20 µM)” in experiment [5]. The Kd in [2] came to 166 nM; in experiment [3], 3.41 nM. Besides, the t1/2 in experiment [2] stood at 2.6 min; in [3], 3.5 min.
